Results on one molecule are retold here after patent US20130231465A1 (HEMHOLTZ ZENTRUM MUNCHEN DEUTCHES FORSCHUNGSZENTRUM FUR …, published 2013).

In the test the target is CA-XII as used in the enzyme inhibition assay (Homo sapiens (Human), UniProt O43570 25-301, limits assumed). As to the kind of experiment: cell-based or functional assay.
Sequence of CA-XII as used in the enzyme inhibition assay (O43570 25-301 limits assumed): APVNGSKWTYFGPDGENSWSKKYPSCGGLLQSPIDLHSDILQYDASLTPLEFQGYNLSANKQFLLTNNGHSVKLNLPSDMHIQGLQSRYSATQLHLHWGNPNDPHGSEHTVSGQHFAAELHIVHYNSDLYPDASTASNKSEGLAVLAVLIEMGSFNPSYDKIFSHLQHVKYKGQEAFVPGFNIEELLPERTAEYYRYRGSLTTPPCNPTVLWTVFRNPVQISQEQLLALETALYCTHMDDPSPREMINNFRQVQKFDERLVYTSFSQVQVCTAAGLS

B1: EXO 6A10 (antibody, V domains shown)
VH: EVKLEESGPGLVQPSETLSLTCTVSGFSLTTYSVSWVRQPSGKGPEWMGRMWYDGDTVYNSALKSRLSISRDTSKNQVFLKMNSLETDETGTYYCTRDFGYFDGSSPFDYWGQGVMVTVSS
VL: DIVMTQTPATLSVTPGESVSLSCRASQGISTSIHWYQQKSNESPRLLIKFASQSISGIPSRFSGSGSGTDFTLSINRVESEDFSVYFCQQTYSLPYTFGAGTKLELK
For the molecule B1, the “inhibition of CA-XII (enzyme activity), IC50” value is 6.14 nM.
